# Measured values reported in paper doi:10.1101/2025.08.19.671101 (bioRxiv, 2025).
# B1: NHP-10E8_MPER-GT10v55_W3-05 (Fab, V domains shown)
# VH: EVQLVESGGGLVQPGGSLRLSCAASGFTFSNYWMSWVRQAPGKGLEWVGFIKNKADGGTAAYAESVKGRFTISRDDSKNTLYLQMNSLKTEDTAVYYCARDLGRYNFWSGFYSQNRFDVWGPGVLVTVSS
# VL: SYEVTQPPSVSVSPGQMARITCGGDNLGSKYVHWYQQKPAQAPVLVIYDDSERPSGIPERFSGSKSGNTATLTISGVEAGDEADYYCQVWDSSSDHPLFGGGTRLTVL
# notes: source: FreeStyle 293F cells, transfected, purified
# B2: SA684_Exp1_Scaf_MPER-GT12v56_W6-10 (Fab, V domains shown)
# VH: QVTLKESGPGILQPSQTLSLTCSFSGFSLSTFGMGVGWIRQPSGKGLEWLAHIWWDDDKFYNPALKSRLTISKDTSKNQVFLKIANVDTADTATYYCARIGEDYFLDVWGKGTTVTVSS
# VL: DIQMTQSPASLSASVGETVTITCRASGNIHNYLAWYQQKQGKSPQLLVYNAKTLADGVPSRFSGSGSGTQYSLKINSLQPEDFGSYYCQHFWSAPYTFGGGTNLEIK
# notes: also called off-target mouse Fab W6-10; source: FreeStyle 293F cells, transfected, purified
# B3: NHP-10E8_MPER-GT10v55_W3-02 (Fab, V domains shown)
# VH: EVQLVESGGGLVQPGGSLKLSCAASGFTFSDHYMDWVRQAPGKGLEWVSSVSSGSGSATLYPDSVKGRFTISRDNAKNTVYLQMNSLRAEDTAVYYCARRGLYYDFWSGYSDFYYGLDSWGQGVVVTVSS
# VL: DIVMTQTPLSLPITPGEPASISCRSSQSLLQSNGNTYLHWYLQKPGQSPQLLIYGGSNRASGVPDRFSGSGSGTDFTLKISKVEAEDVGVYYCVQAIAFPFTFGPGTKLDIK
# notes: as for B1
# B4: SA684_Exp1_Scaf_MPER-GT10v55_W6-03 (Fab, V domains shown)
# VH: DVQLQESGPGLVKPSQSLSLTCSVTGYSITSGYYWNWIRQFPGNKLEWMGYISYDGSNNYNPSLKNRISITRDTSQNQFFLKLNSVTTEDTASYYCAREGPYYDFWSGYYAYYMDVWGKGTTVTVSS
# VL: DIVMSQSPSSLAVSVGEKVTMSCKSSQSLLYSSNQKNYLAWYQQKPGQSPKLLIYWASTRKSGVPDRFTGSGSGTDFTLTISSVKAEDLAVYYCQQYFGYPLTFGAGTKLELK
# notes: as for B1
# B5: SA2102_10E8-like_2911_Fab (Fab, V domains shown)
# VH: QVQLKQSGPGLVQPSQSLSITCTVSGFSLTSYGVHWVRQSPGKGLEWLGVIWSGGSTDYNAAFISRLSISKDNSKSQVFFKMNSLQADDTAIYYCARAPPYYDFWSGYSYYYYYMDVWGKGTTVTV
# VL: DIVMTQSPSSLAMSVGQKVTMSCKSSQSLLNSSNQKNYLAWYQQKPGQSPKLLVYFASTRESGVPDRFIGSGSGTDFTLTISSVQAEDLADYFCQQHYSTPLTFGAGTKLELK
# notes: also called SA2911; source: FreeStyle 293F cells, transfected, purified
# Target: T1, 10E8-GT10.2 (synthetic construct; HIV-1 MPER helix …, N-linked glycan density at N74/75)
# T1 construct: also called MPER-GT immunogen
# T1 chain: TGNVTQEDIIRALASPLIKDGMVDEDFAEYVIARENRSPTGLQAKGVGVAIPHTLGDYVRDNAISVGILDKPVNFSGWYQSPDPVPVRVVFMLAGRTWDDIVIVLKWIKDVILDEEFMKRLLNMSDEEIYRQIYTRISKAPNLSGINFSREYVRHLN
# Assay: SPR
# Settings: both partners purified
row,Binder,Kd [nM]
1,B1,19
2,B2,3
3,B3,7.5
4,B4,9
5,B5,787

# Target: T2, 10E8-GT12 (synthetic construct; HIV-1 MPER helix …, N-linked glycan density at N74/75)
# T2 construct: also called MPER-GT immunogen
# T2 chain: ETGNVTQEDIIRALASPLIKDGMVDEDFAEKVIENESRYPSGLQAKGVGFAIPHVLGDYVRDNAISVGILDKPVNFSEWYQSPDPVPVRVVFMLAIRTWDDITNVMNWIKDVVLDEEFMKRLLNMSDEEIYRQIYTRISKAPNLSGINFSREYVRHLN
# Assay: SPR
# Settings: both partners purified
row,Binder,Kd [nM]
1,B1,490
2,B2,1.8
3,B3,3400
4,B4,8.5
5,B5,534
